# Measurements: the supplement of paper PMC10567573
# B1: FUNDC2 (parent)
# chain: YIKVDWQRVEKDMKKAKEQLKIRK
# Variants of: B1
# Test: protein stability index of a GFP-peptide fusion (GPS, HEK-293T) (PSI 1-6); higher = more stable
# Details: c terminus: a fixed tail appended
# 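Also: lentivirally expressed fusions sorted by FACS into six bins by GFP to DsRed ratio, PSI derived from sequencing read proportions per bin multiplied by bin number.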
row,Variant,protein stability index
1,YIKVDWQRVRKDMKKAKEQLKIRK,1.27
2,YIKVDWQRVYKDMKKAKEQLKIRK,1.79
3,YIKVDWQRVQKDMKKAKEQLKIRK,1.36
4,YIKVDWQRVAKDMKKAKEQLKIRK,1.92
5,YIKVDWQRVEKDMKKEKEQLKIRK,1.43
6,YIKVDWQRVEKDMKKHKEQLKIRK,2.4
7,YIKVDWQRVEKDMKKIKEQLKIRK,2.06
8,YIKVDWQRVEKDMKKKKEQLKIRK,1.83
9,YIKVDWQRVEKDMKKCKEQLKIRK,2.08
10,YIKVDWQRVEKDMKKLKEQLKIRK,1.95
11,YIKVDWQRVEKDMKKPKEQLKIRK,2.13
12,YIKVDWQRVEKDMKKFKEQLKIRK,2.16
13,YIKVDWQRVEKDMKKTKEQLKIRK,1.89
14,YIKVDWQRVEKDMKKWKEQLKIRK,1.94
15,YIKVDWQRVEKDMKCAKEQLKIRK,2.35
16,YIKVDWQRVEKDMKRAKEQLKIRK,1.92
17,YIKVDWQRVEKDMKLAKEQLKIRK,2.19
18,YIKVDWQRVEKDMKDAKEQLKIRK,2.05
19,YIKVDWQRVEKDMKIAKEQLKIRK,2.01
20,YIKVDWQRVEKDMKQAKEQLKIRK,2.5
21,YIKVDWQRVEKDMKHAKEQLKIRK,1.44
22,YIKVDWQRVEKDMKKAKEWLKIRK,1.79
23,YIKVDWQRVEKDMKKAKEELKIRK,2.68
24,YIKVDWQRVEKDMKKAKEKLKIRK,1.32

row,Variant,protein stability index
1,YIKVDWQRVEKDMKKAKEDLKIRK,1.98
2,YIKVDWQRVEKDMKKAKEVLKIRK,1.19
3,YIKVDWQRVEKDMKKAKEFLKIRK,1.56
4,YIKVDWQRVEKDMKKAKEPLKIRK,1.82
5,YIKVDWQRVEKDMKKAKELLKIRK,2.43
6,YMKVDWQRVEKDMKKAKEQLKIRK,4.03
7,YTKVDWQRVEKDMKKAKEQLKIRK,2.37
8,YYKVDWQRVEKDMKKAKEQLKIRK,3
9,YGKVDWQRVEKDMKKAKEQLKIRK,3.6
10,YDKVDWQRVEKDMKKAKEQLKIRK,3.58
11,YQKVDWQRVEKDMKKAKEQLKIRK,1.75
12,YPKVDWQRVEKDMKKAKEQLKIRK,2.54
13,YIKVDWQRVEKDMKKAKEQLKIRF,1.52
14,YIKVDWQRVEKDMKKAKEQLKIRV,2.61
15,YIKVDWQRVEKDMKKAKEQLKIRL,2.16
16,YIKVDWQRVEKDMKKAKEQLKIRT,1.76
17,YIKVDWQRVEKDMKKAKEQLKIRE,2.03
18,YIKVDWQRVEKDMKKAKEQLKIRQ,1.31
19,YIKVDWQRVEKDMKKAKEQLKIRC,2.47
20,YIKVDQQRVEKDMKKAKEQLKIRK,2.71
21,YIKVDIQRVEKDMKKAKEQLKIRK,2.47
22,YIKVDKQRVEKDMKKAKEQLKIRK,3.09
23,YIKVDHQRVEKDMKKAKEQLKIRK,2.83
24,YIKVDCQRVEKDMKKAKEQLKIRK,2.64

row,Variant,protein stability index
1,YIKVDAQRVEKDMKKAKEQLKIRK,3.39
2,YIKVDMQRVEKDMKKAKEQLKIRK,2.46
3,YIKVDNQRVEKDMKKAKEQLKIRK,3.23
4,YIKVDFQRVEKDMKKAKEQLKIRK,2.63
5,YIKVDWQRVEKDMKKAKEQIKIRK,2.42
6,YIKVDWQRVEKDMKKAKEQRKIRK,1.6
7,YIKVDWQRVEKDMKKAKEQFKIRK,4.29
8,YIKVDWQRVEKDMKKAKEQGKIRK,1.89
9,YIKVDWQRVEKDMKKAKEQSKIRK,1.52
10,YIKVDWQRVEKDMKKAKEQAKIRK,2.3
11,YIKVDWQRVEKDMKKAKEQYKIRK,1.91
12,YIKVDWQRVEKDMKKAKEQVKIRK,1.77
13,YIKVDWQRVEKDMDKAKEQLKIRK,1.65
14,YIKVDWQRVEKDMMKAKEQLKIRK,1.9
15,YIKVDWQRVEKDMVKAKEQLKIRK,1.92
16,YIKVDWQRVEKDMYKAKEQLKIRK,4.38
17,YIKVDWQRVEKDMCKAKEQLKIRK,1.83
18,YIKVDWQRVEKDMQKAKEQLKIRK,1.72
19,YIKVDWQRVEKDMRKAKEQLKIRK,2.12
20,YIKVDWQRVEKDMPKAKEQLKIRK,1.86
21,YIKVDWQRVEKDMIKAKEQLKIRK,1.67
22,YIKVDWQRVEKDMHKAKEQLKIRK,1.14
23,YIKVDWQRVEKDMTKAKEQLKIRK,1.92
24,YIKVDWQRVEKDTKKAKEQLKIRK,1.4

row,Variant,protein stability index
1,YIKVDWQRVEKDYKKAKEQLKIRK,2.14
2,YIKVDWQRVEKDIKKAKEQLKIRK,1.89
3,YIKVDWQRVEKDDKKAKEQLKIRK,1.83
4,YIKVDWQRVEKDVKKAKEQLKIRK,1.95
5,YIKVDWQRVEKDGKKAKEQLKIRK,2.32
6,YIKVDWQRVEKDRKKAKEQLKIRK,2.29
7,YIKVDWQRVEKDFKKAKEQLKIRK,1.79
8,YIKVDWQRVEKDPKKAKEQLKIRK,1.17
9,YINVDWQRVEKDMKKAKEQLKIRK,2.22
10,YIYVDWQRVEKDMKKAKEQLKIRK,3.14
11,YIRVDWQRVEKDMKKAKEQLKIRK,2.18
12,YIVVDWQRVEKDMKKAKEQLKIRK,2.79
13,YIGVDWQRVEKDMKKAKEQLKIRK,2.54
14,YIIVDWQRVEKDMKKAKEQLKIRK,1.73
15,YIKVDWTRVEKDMKKAKEQLKIRK,1.73
16,YIKVDWSRVEKDMKKAKEQLKIRK,1.76
17,YIKVDWCRVEKDMKKAKEQLKIRK,2.41
18,YIKVDWRRVEKDMKKAKEQLKIRK,1.43
19,YIKVDWDRVEKDMKKAKEQLKIRK,1.49
20,YIKVDWNRVEKDMKKAKEQLKIRK,2.47
21,YIKVDWPRVEKDMKKAKEQLKIRK,1.37
22,YIKVDWYRVEKDMKKAKEQLKIRK,1.69
